The record followed here is US20260041744A1, “Methods for Treating Pompe Disease” (Amicus Therapeutics, Inc., priority 2022, published 2026).

The assay concerns the target CIMPR (Homo sapiens, UniProt P11717). As to the kind of experiment: CIMPR Overlay Assay (far-western blot). In kind it is binding. The protocol: The CIMPR Overlay Assay is a variation on a far-western blot where proteins are separated on an SDS-PAGE, transferred to a nitrocellulose membrane, and incubated with purified CIMPR in the place of a primary antibody as in a conventional western blot. Binding of CIMPR to M6P-containing glycans on rhGAA proteins is then visualized by an anti-CIMPR antibody.

Chain of CIMPR (P11717 41-2491, species assumed): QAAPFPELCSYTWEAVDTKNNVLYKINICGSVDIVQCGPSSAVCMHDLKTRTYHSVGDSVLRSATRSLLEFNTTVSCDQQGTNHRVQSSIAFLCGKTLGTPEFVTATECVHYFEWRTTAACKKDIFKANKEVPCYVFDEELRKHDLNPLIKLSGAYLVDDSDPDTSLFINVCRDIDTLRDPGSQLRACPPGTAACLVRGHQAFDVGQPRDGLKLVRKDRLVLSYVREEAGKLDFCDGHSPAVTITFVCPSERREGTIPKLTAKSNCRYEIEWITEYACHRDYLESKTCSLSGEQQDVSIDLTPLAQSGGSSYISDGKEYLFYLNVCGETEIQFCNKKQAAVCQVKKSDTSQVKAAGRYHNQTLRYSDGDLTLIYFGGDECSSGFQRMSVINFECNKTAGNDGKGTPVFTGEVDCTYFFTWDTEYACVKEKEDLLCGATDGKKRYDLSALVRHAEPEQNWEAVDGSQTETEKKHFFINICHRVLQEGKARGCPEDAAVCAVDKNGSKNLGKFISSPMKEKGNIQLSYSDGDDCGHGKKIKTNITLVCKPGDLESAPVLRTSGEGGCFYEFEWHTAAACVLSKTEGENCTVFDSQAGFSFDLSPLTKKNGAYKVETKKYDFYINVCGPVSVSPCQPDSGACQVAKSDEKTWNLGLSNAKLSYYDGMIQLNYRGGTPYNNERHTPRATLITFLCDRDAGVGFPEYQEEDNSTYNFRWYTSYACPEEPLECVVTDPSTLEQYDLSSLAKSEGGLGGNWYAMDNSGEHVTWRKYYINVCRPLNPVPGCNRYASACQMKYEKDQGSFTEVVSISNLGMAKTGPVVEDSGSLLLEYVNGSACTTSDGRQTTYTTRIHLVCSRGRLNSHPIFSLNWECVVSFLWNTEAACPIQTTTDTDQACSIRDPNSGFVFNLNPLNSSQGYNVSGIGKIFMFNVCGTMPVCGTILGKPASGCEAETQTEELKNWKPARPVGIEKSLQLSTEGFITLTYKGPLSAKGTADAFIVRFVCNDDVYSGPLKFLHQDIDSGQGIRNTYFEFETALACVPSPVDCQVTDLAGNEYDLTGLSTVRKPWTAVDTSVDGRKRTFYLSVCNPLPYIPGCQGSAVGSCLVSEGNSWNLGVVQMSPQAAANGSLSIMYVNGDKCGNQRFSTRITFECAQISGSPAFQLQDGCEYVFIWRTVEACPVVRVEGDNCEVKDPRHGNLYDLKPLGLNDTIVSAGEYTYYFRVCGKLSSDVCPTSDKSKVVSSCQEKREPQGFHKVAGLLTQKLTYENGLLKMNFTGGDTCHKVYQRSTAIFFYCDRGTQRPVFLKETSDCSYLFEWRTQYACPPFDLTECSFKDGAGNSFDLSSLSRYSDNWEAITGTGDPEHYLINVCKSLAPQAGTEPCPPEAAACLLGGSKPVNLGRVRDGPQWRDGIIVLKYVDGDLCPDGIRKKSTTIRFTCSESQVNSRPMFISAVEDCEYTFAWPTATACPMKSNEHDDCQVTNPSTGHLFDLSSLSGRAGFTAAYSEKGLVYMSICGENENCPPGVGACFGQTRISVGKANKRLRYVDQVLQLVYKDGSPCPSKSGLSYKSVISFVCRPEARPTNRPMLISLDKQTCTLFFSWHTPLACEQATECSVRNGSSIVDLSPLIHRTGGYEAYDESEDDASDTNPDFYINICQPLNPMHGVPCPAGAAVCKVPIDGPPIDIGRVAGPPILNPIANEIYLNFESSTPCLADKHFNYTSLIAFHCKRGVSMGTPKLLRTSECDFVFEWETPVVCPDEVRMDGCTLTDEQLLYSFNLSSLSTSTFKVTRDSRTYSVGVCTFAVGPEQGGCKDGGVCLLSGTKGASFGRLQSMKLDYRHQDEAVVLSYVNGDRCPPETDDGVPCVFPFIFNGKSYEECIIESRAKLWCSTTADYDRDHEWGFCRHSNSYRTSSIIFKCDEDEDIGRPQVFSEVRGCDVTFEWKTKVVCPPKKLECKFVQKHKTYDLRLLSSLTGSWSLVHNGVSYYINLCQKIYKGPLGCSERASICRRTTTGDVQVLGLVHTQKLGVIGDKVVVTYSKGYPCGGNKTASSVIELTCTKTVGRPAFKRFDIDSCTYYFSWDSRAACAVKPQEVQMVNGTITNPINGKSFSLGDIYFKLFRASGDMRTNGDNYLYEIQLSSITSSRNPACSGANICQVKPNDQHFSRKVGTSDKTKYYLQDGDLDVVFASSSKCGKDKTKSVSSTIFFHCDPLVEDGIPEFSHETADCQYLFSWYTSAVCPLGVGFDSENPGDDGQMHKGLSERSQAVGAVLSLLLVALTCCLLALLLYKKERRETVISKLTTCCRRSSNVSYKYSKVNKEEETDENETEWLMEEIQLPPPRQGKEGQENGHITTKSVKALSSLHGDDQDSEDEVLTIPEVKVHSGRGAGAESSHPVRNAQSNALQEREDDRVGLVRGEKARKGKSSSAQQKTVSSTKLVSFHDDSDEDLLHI

For alglucosidase alfa [reference compound], the “CIMPR binding in overlay assay” value is “a band with a much lower intensity”.
